The target of one experiment is T1, flag-tagged Gli1S84A (human, UniProt P08151 1-1106).
T1 construct: also called flag-Gli1S84A; not shown: flag tag from vector p3flag-CMV10
T1 sequence (looked up): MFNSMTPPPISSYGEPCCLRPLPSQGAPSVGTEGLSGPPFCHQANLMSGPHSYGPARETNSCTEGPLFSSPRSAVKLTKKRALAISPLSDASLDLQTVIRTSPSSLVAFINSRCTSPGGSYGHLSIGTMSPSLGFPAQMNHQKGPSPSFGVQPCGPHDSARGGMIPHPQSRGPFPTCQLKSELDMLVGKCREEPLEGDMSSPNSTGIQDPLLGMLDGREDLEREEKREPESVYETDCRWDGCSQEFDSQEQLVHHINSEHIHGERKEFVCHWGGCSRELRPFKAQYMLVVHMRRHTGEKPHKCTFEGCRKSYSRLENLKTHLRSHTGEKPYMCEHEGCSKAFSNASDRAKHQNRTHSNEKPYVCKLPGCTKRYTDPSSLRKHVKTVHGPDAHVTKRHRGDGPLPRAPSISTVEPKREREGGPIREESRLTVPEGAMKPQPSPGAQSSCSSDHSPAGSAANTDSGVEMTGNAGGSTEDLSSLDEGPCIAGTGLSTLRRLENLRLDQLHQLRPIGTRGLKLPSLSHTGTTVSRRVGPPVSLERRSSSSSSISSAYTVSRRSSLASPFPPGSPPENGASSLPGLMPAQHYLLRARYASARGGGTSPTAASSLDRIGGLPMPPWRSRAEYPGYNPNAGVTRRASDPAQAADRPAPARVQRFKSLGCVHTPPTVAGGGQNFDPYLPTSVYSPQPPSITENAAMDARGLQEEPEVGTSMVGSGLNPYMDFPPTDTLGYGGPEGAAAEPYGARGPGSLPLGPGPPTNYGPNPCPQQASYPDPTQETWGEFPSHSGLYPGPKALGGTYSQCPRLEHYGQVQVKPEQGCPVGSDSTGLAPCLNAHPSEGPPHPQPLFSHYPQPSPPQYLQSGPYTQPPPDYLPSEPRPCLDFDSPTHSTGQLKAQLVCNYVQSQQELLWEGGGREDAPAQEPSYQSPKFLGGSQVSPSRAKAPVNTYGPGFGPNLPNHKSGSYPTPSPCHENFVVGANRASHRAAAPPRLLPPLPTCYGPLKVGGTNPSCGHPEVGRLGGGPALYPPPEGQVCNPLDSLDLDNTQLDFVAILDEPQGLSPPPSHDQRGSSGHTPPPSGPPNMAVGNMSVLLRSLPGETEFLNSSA
Put plainly: IP-Western, flag-tagged Gli1S84A transfected into BE3 cells. As for the experimental part: (§1) FIGS. 13A-13K. related to FIG. 5. […] FIG. 13A. Luciferase assay of Gli reporter in the stable clones treated by TNFα alone (5 ng/mL) or TNFα plus rapamycin (100 nM). Error bars represent SD (n=3). FIG. 13B. Gli1 immunofluorescence staining in several BE3 stable clones with TNFα treatment. Scale bar=100 μm for original picture and 25 μm for inset. FIG. 13C. The regulation of p-Gli1 by TNFα alone or together with rapamycin (10, 50, and 100 nM) in the BE3 stable clone. FIG. 13D. MTT assay of the various Gli1 stable clones. All cells were counted, and then 3,000 cells were seeded in each well of a 96-well plate. Error bars represent SD (n=3). FIG. 13E. Soft-agar assay of the various Gli1 stable clones. All cells were counted, and then 1,000 cells were mixed with agarose for each well of a 24-well plate. Left, representative microscopic images. Right, quantitation of colony formation. Error bars represent SD (n=3). FIG. 13F. Invasion assay of the various Gli1 stable clones. All cells were counted, and then 1,000 cells were seeded on matrigel in transwells. Left, representative microscopic images from the bottom side of transwell membranes. Right, quantitation of invasive cells. Error bars represent SD (n=3). FIGS. 13G-13I. The assays of MTT (G), soft agar (H), and invasion (I) using the BE3 stable clones treated with TNFα.

The next experiment addresses T2, flag-tagged Gli1S84E (human, UniProt P08151 1-1106).
T2 construct: not shown: flag tag from vector p3flag-CMV10
T2 sequence (looked up): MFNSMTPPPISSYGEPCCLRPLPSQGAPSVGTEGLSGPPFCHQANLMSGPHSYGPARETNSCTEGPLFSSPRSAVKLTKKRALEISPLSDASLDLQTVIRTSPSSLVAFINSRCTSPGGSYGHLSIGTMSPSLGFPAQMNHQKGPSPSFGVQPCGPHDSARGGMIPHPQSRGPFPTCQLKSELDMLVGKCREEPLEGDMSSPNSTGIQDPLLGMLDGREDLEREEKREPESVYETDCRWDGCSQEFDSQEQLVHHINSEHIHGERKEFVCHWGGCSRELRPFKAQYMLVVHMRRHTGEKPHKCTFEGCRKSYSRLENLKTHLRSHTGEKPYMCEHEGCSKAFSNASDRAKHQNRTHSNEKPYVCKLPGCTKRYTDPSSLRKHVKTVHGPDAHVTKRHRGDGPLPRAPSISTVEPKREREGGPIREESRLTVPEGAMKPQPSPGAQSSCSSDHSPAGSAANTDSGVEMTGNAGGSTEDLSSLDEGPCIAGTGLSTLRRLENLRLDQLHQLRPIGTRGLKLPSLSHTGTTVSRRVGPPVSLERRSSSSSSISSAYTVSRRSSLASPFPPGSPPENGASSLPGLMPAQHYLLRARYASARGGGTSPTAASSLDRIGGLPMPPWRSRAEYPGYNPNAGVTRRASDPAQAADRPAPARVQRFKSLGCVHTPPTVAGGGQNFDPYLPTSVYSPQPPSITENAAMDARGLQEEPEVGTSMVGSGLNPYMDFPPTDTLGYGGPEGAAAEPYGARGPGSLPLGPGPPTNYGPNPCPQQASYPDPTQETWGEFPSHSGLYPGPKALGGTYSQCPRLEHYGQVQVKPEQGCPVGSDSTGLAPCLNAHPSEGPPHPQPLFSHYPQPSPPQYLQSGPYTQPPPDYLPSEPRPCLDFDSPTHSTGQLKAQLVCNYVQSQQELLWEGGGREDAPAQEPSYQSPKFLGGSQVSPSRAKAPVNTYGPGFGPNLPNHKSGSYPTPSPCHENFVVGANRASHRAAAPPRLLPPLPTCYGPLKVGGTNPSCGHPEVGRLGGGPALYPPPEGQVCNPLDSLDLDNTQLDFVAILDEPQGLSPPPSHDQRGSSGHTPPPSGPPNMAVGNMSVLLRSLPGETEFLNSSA
Put plainly: IP-Western, flag-tagged Gli1S84E transfected into BE3 cells. As to the method:
as §1

B1: SuFu (other, human, UniProt Q9UMX1 1-484, looked up)
chain: MAELRPSGAPGPTAPPAPGPTAPPAFASLFPPGLHAIYGECRRLYPDQPNPLQVTAIVKYWLGGPDPLDYVSMYRNVGSPSANIPEHWHYISFGLSDLYGDNRVHEFTGTDGPSGFGFELTFRLKRETGESAPPTWPAELMQGLARYVFQSENTFCSGDHVSWHSPLDNSESRIQHMLLTEDPQMQPVQTPFGVVTFLQIVGVCTEELHSAQQWNGQGILELLRTVPIAGGPWLITDMRRGETIFEIDPHLQERVDKGIETDGSNLSGVSAKCAWDDLSRPPEDDEDSRSICIGTQPRRLSGKDTEQIRETLRRGLEINSKPVLPPINPQRQNGLAHDRAPSRKDSLESDSSTAIIPHELIRTRQLESVHLKFNQESGALIPLCLRGRLLHGRHFTYKSITGDMAITFVSTGVEGAFATEEHPYAAHGPWLQILLTEEFVEKMLEDLEDLTSPEEFKLPKEYSWPEKKLKVSILPDVVFDSPLH
notes: also called suppressor of fused
For the molecule B1, the binding result with flag-tagged Gli1S84A and in the experiment with flag-tagged Gli1S84E was “binds” throughout.

These data come from patent publication US20150017651A1 (University of Texas, published 2015).
